The source of these data is publication PMC8906176.

This assay concerns the target C4-AM2 monobody. Kind of assay: BLI.

In turn, “SARS-CoV-2 S protein receptor-binding domain, Beta variant (B.1.351) (from UniProt P0DTC2) (domain or fragment)” had a Kd of 6.3 nM.

For “SARS-CoV-2 S protein receptor-binding domain, Alpha variant (B.1.1.7) (from UniProt P0DTC2) (domain or fragment)”, the dissociation constant (Kd) is < 0.01 nM.
